No end group written: not given here.
B1: truncated mouse TRIM75 protein (136-467) containing the coiled coil and C-terminal domains, N-terminal FLAG tag (domain or fragment, UniProt Q3UWZ0 136-467, looked up)
chain: SLHRKHLQDYSKLLKWEVKEIQGLMSALNKRTVTLREQAEAQRSQLTSECEKLMRFLDQEERAAFSRLEDEEMRLEKRLLDNIAALEHHGSSLRDLLRHLMLTGELSEAKMLSTVKDFYLNCRRQLISPSIFPVQLRRVEYSFPLQYSALQKVIQHFTDNVTLDLKTAHPNLLISKDRTCVTFTKKRQRIPGSSSFTKSPVVLGIPHFNSGRHFWEVQVGKKPKWAIGICKADSSIGERQSPNPWGYWRIVWQGDSFNVSGADPDSRLKAARATSIGVFLDYELGEVSFYGMPEKCHLYTFRDTFSGPVCPYFYIGPQSEPLRLCSATDSEC
B2: mouse TRIM75 coiled-coil domain with the CCm9A mutation (domain or fragment, UniProt Q3UWZ0 168-222, looked up)
chain: VTLREQAEAAASQATSEAEKAMRAADQEARAAFSRAEDEEMRLEKRLLDNIAALE
B3: mouse TRIM75 coiled-coil domain (residues 168-222) (domain or fragment, UniProt Q3UWZ0 168-222, looked up)
chain: VTLREQAEAQRSQLTSECEKLMRFLDQEERAAFSRLEDEEMRLEKRLLDNIAALE
modifications: also: homodimer: interchain disulfide between C185 of two chains
B4: full-length mouse TRIM75 with N-terminal FLAG tag (natural protein, UniProt Q3UWZ0 1-467, looked up)
chain: MAHVEVLARLQKETKCPICLDDLTDPVTVECGHNFCRSCIKDFWAGQQATSSCPVCRHQCQHRNLRSNAQLGNMIETAQLLQGMENKRHESSTSCERHNQALTLFCEDDLQLLCDQCVEPESHGRHQVLSITEAASLHRKHLQDYSKLLKWEVKEIQGLMSALNKRTVTLREQAEAQRSQLTSECEKLMRFLDQEERAAFSRLEDEEMRLEKRLLDNIAALEHHGSSLRDLLRHLMLTGELSEAKMLSTVKDFYLNCRRQLISPSIFPVQLRRVEYSFPLQYSALQKVIQHFTDNVTLDLKTAHPNLLISKDRTCVTFTKKRQRIPGSSSFTKSPVVLGIPHFNSGRHFWEVQVGKKPKWAIGICKADSSIGERQSPNPWGYWRIVWQGDSFNVSGADPDSRLKAARATSIGVFLDYELGEVSFYGMPEKCHLYTFRDTFSGPVCPYFYIGPQSEPLRLCSATDSEC

Assays:
[1] = biological target: the molecule itself; assay: cross-linking
[2] = biological target: the molecule itself; assay: cross-linking; remark: listed apart in the source
[3] = biological target: the molecule itself; assay: crystal structure

| Protein | stoichiometry N [1] | also measured |
| --- | --- | --- |
| B1 | 4 | – |
| B2 | – | stoichiometry N [2]: 2 |
| B3 | – | stoichiometry N [3]: 4 |
| B4 | 4 | – |

From article PMC9471973 (Computational and Structural Biotechnology Journal, 2022)
